Consider 1 molecule from patent CN106467574A (UNIV FUDAN, dated 2017).

Test [1] concerns the target 人源TF, 细胞表面TF (human tissue factor on the surface of human tumour cells) (human, UniProt P13726 33-295). As to the kind of experiment: cell-based or functional assay.
Test [2] deals with T1, 鼠源TF (mouse tissue factor on B16-F10 cells) (mouse, UniProt P20352 29-294).
T1 construct: whole, on cells
T1 sequence (looked up): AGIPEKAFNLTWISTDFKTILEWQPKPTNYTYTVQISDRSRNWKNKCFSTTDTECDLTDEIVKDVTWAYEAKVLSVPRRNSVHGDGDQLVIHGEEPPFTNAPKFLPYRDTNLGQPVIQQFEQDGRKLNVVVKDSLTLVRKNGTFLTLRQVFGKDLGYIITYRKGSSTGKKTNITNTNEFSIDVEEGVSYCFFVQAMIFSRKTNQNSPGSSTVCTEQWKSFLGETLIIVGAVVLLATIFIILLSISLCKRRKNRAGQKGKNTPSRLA
As to the kind of experiment: flow cytometry on B16-F10 cells.

B1: TF-mAb-SC1 (antibody, IgG2b, V domains shown)
VH: QVQLQQPGAELVRPGASVKLSCKASGYSFISYWMNWVKQRPGQGLEWIGMIYPADSETRLNQKFKDKATLTVDKSSSTAYMQLSSPTSEDSAVYYCAREDYGSSDYWGQGTTLTVSS
VL: EILLTQSPAIIAASPGEKVTITCSASSSVSYMNWYLQKPGSSPKIWIYGISNLASGVPARFSGSGSGTSFSFTINSMETEDVATYYCQQKSSFPWTFGGGTKLEIK
notes: Mouse monoclonal antibody from a hybridoma, purified from ascites
As to B1, in test [1], the “抗FXa生成活性 IC50 (BxPC-3 cells)” value amounted to 9 nM and the “抗FXa生成活性 IC50 (MDA-MB-231 cells)” value is 6.4 nM. Further, the binding result in test [2] is recorded as “no binding (tested: 10μg/mL)”.
